Measurements: patent US20220401560A1, “PEPTIDE ENCAPSULATING FERRITIN” (Ajinomoto Co., Inc., priority 2019, published 2022)
No end group written: not given here.

How the values were obtained:
[1] = biological target: T1, ferritin (FTH) (Homo sapiens, UniProt P02794); experiment: Search for peptides capable of being encapsulated into ferritin by disassembly/reassembly process, LC-MS detection; conditions: encapsulation into ferritin (FTH); three trials
T1 construct: made in house; host or cells: Escherichia coli BL21 (DE3), plasmid pET20-FTH
T1 sequence (P02794 whole entry): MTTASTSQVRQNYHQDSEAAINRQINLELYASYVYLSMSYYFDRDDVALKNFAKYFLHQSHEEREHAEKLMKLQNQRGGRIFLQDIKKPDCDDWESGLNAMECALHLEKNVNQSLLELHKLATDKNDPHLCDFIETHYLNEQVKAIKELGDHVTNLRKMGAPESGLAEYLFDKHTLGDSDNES
Experimental: Peptides capable of being encapsulated into ferritin by disassembly/reassembly process were searched. In the disassembly/reassembly process, 1 mL of a 50 mM glycine hydrochloride buffer (pH 2.3) containing FTH at a final concentration of 5 mg/mL and the peptide at a final concentration of 0.5 mM, was left to stand at room temperature for 15 minutes. Next, 310 μL of a 1 M Tris hydrochloride buffer (pH 9.0) was added for neutralization, and left to stand at room temperature for 3 hours. After the standing, 1.2 mL of a 50 mM Tris hydrochloride buffer (pH 8.0) was added, and centrifuged (at 15,000 rpm for one minute). Thereafter, 2.5 mL of its supernatant was injected into a desalting column PD-10 (Sephadex G-25 filled product, GE Healthcare Inc.) equilibrated with a 50 mM Tris hydrochloride buffer (pH 8) for the elusion with 3.0 mL of a 50 mM Tris hydrochloride buffer (pH 8.0) to separate non-encapsulated peptides and ferritin. A whole amount (3.0 mL) of the resulting solution was concentrated to 0.1 mL by centrifugal ultrafiltration using Vivaspin 20-100K (GE Healthcare Inc.). The operation of adding 10 mL of a 50 mM Tris hydrochloride buffer to the concentrated solution and then concentrating was repeated twice to remove peptides that were not removed by PD-10 to obtain 0.1 mL of a sample solution. For the LC-MS analysis, 50 p1 of a 1 M glycine hydrochloride buffer (pH 2.3) was added to 50 μL of the sample solution and then the resulting solution was left to stand at room temperature for 15 minutes. To the solution, 900 μL of ethanol was added. Next, the resulting solution was stirred vigorously and then centrifuged (at 15,000 rpm for five minutes) for collection of the supernatant. The supernatant was analyzed using LCMS-2020 (Shimadzu Corporation) as LC-MS, Inertsil (Registered trademark) as a column, ODS-3, particle diameter of 2 μm and 2.1 mm×50 mm (GL science). Thereafter, 10 μL of the sample injected into the column was eluded at a flow rate of 0.2 mL/min for 10 minutes such that a mixing ratio of a solution A (0.1% formic acid/99.9% acetonitrile) and a solution B (50% water/50% acetonitrile) is from 95:5 to 95:5.
The encapsulation of the peptide into ferritin was studied by comparing in terms of the amount of the peptide detected by LC/MS between the sample prepared by encapsulating the peptide into ferritin at the disassembly/reassembly process and the sample prepared simply by mixing ferritin with the peptide. For example, ClAc-FHC was eluted at a retention time of 0.8 minute. […] However, the peak was not observed for the sample prepared by simply mixing the peptide with ferritin without performing the disassembly/reassembly process (FIG. 12B). FIG. 13 to FIG. 17 illustrate LC-MS results for FTH in which the peptide was encapsulated at the disassembly/reassembly process.

[2] = tested on: SKBR-3 cell; experiment: Cell incorporation test by FACS in SKBR-3 cell; format: cell-based, human; conditions: 24 hours, FTH 100, 200 and 400 nM, or peptide without FTH encapsulation at the same peptide concentrations
Experimental: A human breast cancer derived SKBR-3 cell (20,000 cell/well, 96-well plate) was added to 100 μL media that were produced by adding the PKC-F encapsulating FTH to evaluation media (Opti-MEM™ (Thermo Fisher Scientific Inc.)+1% non-essential amino acid solution (Thermo Fisher Scientific Inc.)+1% penicillin—streptomycin (Nacalai Tesque, Inc.)) at final concentrations of 100 nM (PKC-F concentration 0.86 μM), 200 nM (PKC-F concentration 1.72 μM) and 400 nM (PKC-F concentration 3.44 μM), respectively, and then cultured at 37° C. The transferrin receptor TfR was expressed in the SKBR-3 cell. […] After that 100 μL of an Opti-MEM™ medium was added, and the cells were transferred to a plate for fluorescence-activated cell sorting (FACS), and then subjected to centrifugal separation at 400×g for 5 minutes. The cells for each were suspended in a FACS buffer (Attune™ Focusing Fluid, Thermo Fisher Scientific Inc.), and analyzed by FACS (Attune NxT, Thermo Fisher Scientific Inc.).
The cell incorporation of the obtained FAM-SV40 encapsulating FTH was evaluated. […]
After 100 μL of the Opti-MEM™ medium was added, the cells were transferred to the plate for fluorescence-activated cell sorting (FACS), and then subjected to centrifugal separation at 400×g for 5 minutes. […]

Substance: 5(6)-FAM-CGGPKKKRKVG (SEQ ID NO: 10) ({5(6)‑FAM}-CGGPKKKRKVG) [FAM-SV40, fluorescent dye-modified peptide, linear]
- encapsulation [1]: A (“A” represents peptides with three times of confirmation of encapsulation.)
- fluorescence intensity of cells by FACS [2]: not observed
